Molecular target: T1, mouse PD-L1 on the surface of DC 2.4 dendritic cells (mouse, UniProt Q9EP73 19-290)
T1 construct: whole, on cells; also called Programmed Death-Ligand 1
Experiment: flow cytometry on DC 2.4 cells, purified Nb detected with fluorophore-conjugated anti-FLAG antibody
Method: While the majority of anti-PD-L1 and anti-CTLA-4 Nbs are currently produced intracellularly in E. coli, the lengthy processes of lysing bacteria and removing endotoxins may dramatically increase costs and demand a centralized facility for production. […] Of note, in the shake-flask expression system, anti-PD-L1 and anti-CTLA-4 Nbs can be secreted into the supernatant of B. subtilis culture at ˜15 mg per liter of culture. To further confirm that these Nbs remain functional following secretion and purification, the mouse dendritic cell line DC 2.4 was chosen because it is known to constitutively express the immunoinhibitory receptor PD-L1 on the cell surface (FIG. 5, Panel A), and it was also validated the expression of PD-L1 by a commercial antibody specific for mouse PD-L1. […] The stained samples were analyzed by flow cytometry and fluorescence microscopy—results of flow cytometry indicated the specific binding of purified anti-PD-L1 Nbs and no binding for the anti-caffeine Nb control in comparison to the unstained sample (FIG. 5, Panel B). […] To further test whether the purification step could be bypassed by directly using bacterial supernatant, 200 μl of the original B. subtilis supernatant containing the anti-PD-L1 Nb was applied to stain ˜one million DC 2.4 cells for fluorescence microscopy.

T1 sequence (Q9EP73 19-290): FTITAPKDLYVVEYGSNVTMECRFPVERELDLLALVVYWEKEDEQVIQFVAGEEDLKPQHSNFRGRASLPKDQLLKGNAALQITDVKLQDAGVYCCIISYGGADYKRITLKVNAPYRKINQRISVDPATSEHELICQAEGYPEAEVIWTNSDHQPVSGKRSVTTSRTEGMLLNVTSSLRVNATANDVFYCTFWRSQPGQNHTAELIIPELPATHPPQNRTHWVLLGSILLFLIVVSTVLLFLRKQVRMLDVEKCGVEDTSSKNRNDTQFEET

binding result: no binding
B1: anti-caffeine nanobody secreted from B. subtilis (CBD fusion, with FLAG epitope) (VHH, not shown: large carriers)
VHH: QVQLVESGGGLVQAGGSLRLSCTASGRTGTIYSMAWFRQAPGKEREFLATVGWSSGITYYMDSVKGRFTISRDKGKNTVYLQMDSLKPEDTAVYYCTATRAYSVGYDYWGQGTQVTVSS
notes: Negative control in the PD-L1 staining; also called anti-caffeine Nb; CBD-anti-caffeine Nb

— US20240094220A1 (NORTHEASTERN UNIVERSITY, published 2024)
